JP2012050437A

Columns and labels:
[1] = target: aggregated synthetic Aβ1-42 (human) (UniProt P05067); test: competition Aβ1-42 ELISA; competitor biotin-conjugated m12A11Cγ2a at a fixed concentration
[2] = target: Aβ peptide (bio-DAE peptide); test: Biacore (data not shown); the immobilised Aβ antigen is not given

B1: humanized 12A11 antibody, version 1 (antibody, V domains shown)
VH: QVQLVESGGGVVQPGRSLRLSCAFSGFSLSTSGMSVGWIRQAPGKGLEWLAHIWWDDDKYYNPSLKSRLTISKDTSKNTVYLQMNSLRAEDTAVYYCARRTTTADYFAYWGQGTTVTVSS
VL: DVVMTQSPLSLPVTPGEPASISCRSSQSIVHSNGNTYLEWYLQKPGQSPQLLIYKVSNRFSGVPDRFSGSGSGTDFTLKISRVEAEDVGVYYCFQSSHVPLTFGQGTKLEIK
fold of IC50 against murine and chimeric 12A11 [1]: < 2 fold
Kd [2]: 23 nM
